Results reported in publication PMC9011129.
Where two headings read alike, the source gives them in different places.

Columns and labels:
Larp-DM15 [1] = target: T1, Larp-DM15 (Drosophila melanogaster, UniProt Q9VAW5 1330-1481); test: EMSA
Larp-DM15 [2] = target: T1, Larp-DM15; test: EMSA; remark: listed apart in the source

T1 sequence (Q9VAW5 1330-1481): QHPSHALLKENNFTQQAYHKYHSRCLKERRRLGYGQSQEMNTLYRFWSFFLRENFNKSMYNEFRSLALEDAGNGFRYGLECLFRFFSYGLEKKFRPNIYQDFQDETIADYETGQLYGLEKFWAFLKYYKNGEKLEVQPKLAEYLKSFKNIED

| Binder | binding result (Larp-DM15 [1]) | binding result (Larp-DM15 [2]) |
| --- | --- | --- |
| CUUUUGCCAUUGUCAGCCGACGAAGUGCUUUAACCCAAACUA (ssRNA, 5' cap (Vaccinia capping system)) [RpL30 42-mer] | binds |  |
| GAAAAGCCAUUGUCAGCCGACGAAGUGCUUUAACCCAAACUA (ssRNA, 5' cap (Vaccinia capping system)) [Purine-substituted RpL30 control] | no binding |  |
| CUUUUUGGAAUACGAAGCUGACACCGCGUGGUGUUUUUGCUU (ssRNA, 5' cap (Vaccinia capping system)) [Non1 42-mer] |  | binds |
